Paper PMC5222566, “The Ciliopathy-Associated Cep104 Protein Interacts with Tubulin and Nek1 Kinase” (Structure(London, England:1993), 2017)

Target: tubulin (Cytoskeleton) (UniProt P02550 1-451)
Assay: SEC-MALS; TOG protein mixed with reconstituted tubulin, each ~42 uM, 1:1; 25 mM Tris-HCl pH 7.5, 100 mM NaCl, 1 mM MgCl2, 1 mM EGTA
Details: both partners purified

- stoichiometry N: 1
B1: human Cep104 TOG domain (Cep104^367-685), wild type (domain or fragment, UniProt O60308 367-685, looked up)
chain: DPHPKINAESLPYDERPLPAIRKHYGEAVVEPEMSNADISDARRGGMLGEPEPLTEKALREASSAIDVLGETLVAEAYCKTWSYREDALLALSKKLMEMPVGTPKEDLKNTLRASVFLVRRAIKDIVTSVFQASLKLLKMIITQYIPKHKLSKLETAHCVERTIPVLLTRTGDSSARLRVTAANFIQEMALFKEVKSLQIIPSYLVQPLKANSSVHLAMSQMGLLARLLKDLGTGSSGFTIDNVMKFSVSALEHRVYEVRETAVRIILDMYRQHQASILEYLPPDDSNTRRNILYKTIFEGFAKIDGRATDAEMRARRK
notes: The crystallised TOG construct (392-676, PDB 5LPH) has other limits; also called WT TOG; source: E. coli Rosetta, purified (Ni-NTA, PreScission cleavage, HiTrap SP); not shown: His6, N-terminal, cleaved
